Test results as given in IntAct's records for PubMed 23104057.

B1: Plexin-A2 (Mus musculus), P70207 (parent)
chain: MEQRRFYLRAMQADNLSVVLLSVAWLLLARGTTGMPQYSTFHSENRDWTFNHLTVHRRTGAVYVGAINRVYKLTGNLTIQVAHKTGPEEDNKACYPPLIVQPCSEVLTLTNNVNKLLIIDYSENRLLACGSLYQGVCKLLRLDDLFILVEPSHKKEHYLSSVNKTGTMYGVIVRSEGEDGKLFIGTAVDGKQDYFPTLSSRKLPRDPESSAMLDYELHSDFVSSLIKIPSDTLALVSHFDIFYIYGFASGGFVYFLTVQPETPDGMAINSAGDLFYTSRIVRLCKDDPKFHSYVSLPFGCTRAGVEYRLLQAAYLAKPGEALAQAFNISSDEDVLFAIFSKGQKQYHHPPDDSALCAFPIRAINLQIKERLQSCYHGEGNLELNWLLGKDVQCTKAPVPIDDNFCGLDINQPLGGSTPVEGLTLYTTSRDRLTSVASYVYNGYSVVFVGTKSGKLKKIRADGPPHGGVQYEMVSVFKDGSPILRDMAFSINQLYLYVMSERQVTRVPVESCEQYTTCGECLSSGDPHCGWCALHNMCSRRDKCQRAWEANRFAASISQCMSLEVHPNSISVSDHSRLLSLVVNDAPNLSEGIACAFGNLTEVEGQVSGSQVICISPGPKDVPVIPLDQDWFGLELQLRSKETGKIFVSTEFKFYNCSAHQLCLSCVNSAFRCHWCKYRNLCTHDPTTCSFQEGRINVSEDCPQLVPTEEILIPVGEVKPITLKARNLPQPQSGQRGYECVLSIQGAVHRVPALRFNSSSVQCQNSSYQYDGMDISNLAVDFAVVWNGNFIIDNPQDLKVHLYKCAAQRESCGLCLKADHKFECGWCSGERRCTLHQHCPSTSSPWLDWSSHNVKCSNPQITEILTVSGPPEGGTRVTIHGVNLGLDFSEIAHHVQVAGVPCTPIPGEYIIAEQIVCEMGHAVIGTTSGPVRLCIGECKPEFMTKSHQQYTFVNPSVLSLSPIRGPESGGTMVTITGHYLGAGSSVAVYLGNQTCEFYGRSMNEIVCVSPPSSNGLGPVPVSVSVDRARVDSSLQFEYIDDPRVQRIEPEWSITSGHTPLTITGFNLDVIQEPRVRVKFNGKESVNVCTVVNTTTLTCLAPSLTSDYRPGLDTVERPDEFGFLFNNVQSLLIYNDTKFIYYPNPTFELLSPTGILDQKPGSPIILKGKNLCPPASGGAKLNYTVMIGETPCTVTVSETQLLCEPPNLTGQHKVMVHVGGMVFSPGSVSVISDSLLTLPAIISIAAGGSLLLIIVIIVLIAYKRKSRENDLTLKRLQMQMDNLESRVALECKEAFAELQTDINELTSDLDRSGIPYLDYRTYAMRVLFPGIEDHPVLRELEVQGNGQQHVEKALKLFAQLINNKVFLLTFIRTLELQRSFSMRDRGNVASLIMTGLQGRLEYATDVLKQLLSDLIDKNLENKNHPKLLLRRTESVAEKMLTNWFAFLLHKFLKECAGEPLFMLYCAIKQQMEKGPIDAITGEARYSLSEDKLIRQQIEYKTLILNCVNPDNENSPEIPVKVLNCDTITQVKEKILDAVYKNVPYSQRPRAVDMDLEWRQGRIARVVLQDEDITTKIEGDWKRLNTLMHYQVSDRSVVALVPKQTSSYNIPASASISRTSISRYDSSFRYTGSPDSLRSRVPMITPDLESGVKVWHLVKNHDHGDQKEGDRGSKMVSEIYLTRLLATKGTLQKFVDDLFETLFSTVHRGSALPLAIKYMFDFLDEQADRHSIHDTDVRHTWKSNCLPLRFWVNVIKNPQFVFDIHKGSITDACLSVVAQTFMDSCSTSEHRLGKDSPSNKLLYAKDIPSYKNWVERYYADIAKLPAISDQDMNAYLAEQSRLHATEFNMLSALNEIYSYVSKYSEELIGALEQDEQARRQRLAYKVEHLINAMSIES
B2: Neuropilin-1 (Mus musculus), P97333 (parent)
chain: MERGLPLLCATLALALALAGAFRSDKCGGTIKIENPGYLTSPGYPHSYHPSEKCEWLIQAPEPYQRIMINFNPHFDLEDRDCKYDYVEVIDGENEGGRLWGKFCGKIAPSPVVSSGPFLFIKFVSDYETHGAGFSIRYEIFKRGPECSQNYTAPTGVIKSPGFPEKYPNSLECTYIIFAPKMSEIILEFESFDLEQDSNPPGGMFCRYDRLEIWDGFPEVGPHIGRYCGQKTPGRIRSSSGVLSMVFYTDSAIAKEGFSANYSVLQSSISEDFKCMEALGMESGEIHSDQITASSQYGTNWSVERSRLNYPENGWTPGEDSYKEWIQVDLGLLRFVTAVGTQGAISKETKKKYYVKTYRVDISSNGEDWISLKEGNKAIIFQGNTNPTDVVLGVFSKPLITRFVRIKPVSWETGISMRFEVYGCKITDYPCSGMLGMVSGLISDSQITASNQADRNWMPENIRLVTSRTGWALPPSPHPYTNEWLQVDLGDEKIVRGVIIQGGKHRENKVFMRKFKIAYSNNGSDWKTIMDDSKRKAKSFEGNNNYDTPELRTFSPLSTRFIRIYPERATHSGLGLRMELLGCEVEAPTAGPTTPNGNPVDECDDDQANCHSGTGDDFQLTGGTTVLATEKPTIIDSTIQSEFPTYGFNCEFGWGSHKTFCHWEHDSHAQLRWSVLTSKTGPIQDHTGDGNFIYSQADENQKGKVARLVSPVVYSQSSAHCMTFWYHMSGSHVGTLRVKLRYQKPEEYDQLVWMVVGHQGDHWKEGRVLLHKSLKLYQVIFEGEIGKGNLGGIAVDDISINNHISQEDCAKPTDLDKKNTEIKIDETGSTPGYEGEGEGDKNISRKPGNVLKTLDPILITIIAMSALGVLLGAVCGVVLYCACWHNGMSERNLSALENYNFELVDGVKLKKDKLNPQSNYSEA
B3: Neuropilin-1 (Mus musculus), P97333 (parent)
chain: B2 chain
partner: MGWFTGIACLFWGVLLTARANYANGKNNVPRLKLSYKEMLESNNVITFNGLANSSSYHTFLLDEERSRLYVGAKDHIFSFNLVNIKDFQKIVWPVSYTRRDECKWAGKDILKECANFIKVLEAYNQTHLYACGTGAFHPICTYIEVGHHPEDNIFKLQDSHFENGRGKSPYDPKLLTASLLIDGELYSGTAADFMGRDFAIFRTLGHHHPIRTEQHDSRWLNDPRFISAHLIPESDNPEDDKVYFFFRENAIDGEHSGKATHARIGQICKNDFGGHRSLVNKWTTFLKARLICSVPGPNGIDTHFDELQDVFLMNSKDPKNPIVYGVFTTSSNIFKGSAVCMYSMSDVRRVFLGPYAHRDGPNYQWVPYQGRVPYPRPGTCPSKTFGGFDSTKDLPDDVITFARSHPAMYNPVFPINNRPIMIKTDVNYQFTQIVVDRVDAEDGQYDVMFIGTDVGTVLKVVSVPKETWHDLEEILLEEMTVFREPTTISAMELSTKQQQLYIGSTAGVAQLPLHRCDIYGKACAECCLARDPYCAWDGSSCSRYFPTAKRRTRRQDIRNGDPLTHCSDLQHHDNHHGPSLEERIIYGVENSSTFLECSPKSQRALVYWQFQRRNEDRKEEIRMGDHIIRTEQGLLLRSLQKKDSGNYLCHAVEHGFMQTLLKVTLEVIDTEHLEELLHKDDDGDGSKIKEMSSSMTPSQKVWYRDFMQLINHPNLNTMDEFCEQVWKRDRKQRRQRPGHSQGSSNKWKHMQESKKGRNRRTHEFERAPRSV
B4: Semaphorin-3A (Mus musculus), O08665 (parent)
chain: B3 partner

Variants of: B1
Conditions: with nrp1_mouse Nrp1, P97333

Row | effect of a mutation on the interaction | Variant
1 | decreasing interaction strength | F275N

Variants of: B2
Conditions: with plxa2_mouse Plxna2, P70207

Row | effect of a mutation on the interaction | Variant
2 | disrupting interaction strength | P73A;H74S

Variants of: B3
Conditions: with sem3a_mouse Sema3a

Row | effect of a mutation on the interaction | Variant
3 | disrupting interaction strength | P73A;H74S

Variants of: B4
Conditions: with nrp1_mouse Nrp1, P97333

Row | effect of a mutation on the interaction | Variant
4 | decreasing interaction strength | L353N;P355S
